Results reported in the DeepSol protein solubility set.

Test: soluble on expression in E. coli; label from the status in PepcDB or PDB records

Sequence	soluble on expression in E. coli
MGSDKIHHHHHHWQVTGSKTTLDGVEAARMSGIESYPLRLEPELVCEADDLDALLDVDALVITLPARRSGPGEDFYLQAMQELVDSALAYRIPRIIFTSSTSVYGDAQGVVKENTPRNPVTASGRTLKELEDWLHNLPGTSVDILRLAGLVGPGRHPGRFFAGKTAPDGQHGVNLVHLEDVVGAITLLLQAPKGGHIYNICAPAHPARNVFYPQMTRLLGMAPPHFRDAPDNGKGKIIDGSRICNELGFEYQYPDPLVMPME	not soluble
MGSDKIHHHHHHMTKDMQTFTLVPQGSLEGYIRAANAYPMLTAEEERALAERLHYQGDLEAAKHLILSHLRFVIHVARNYSGYGLPQADLIQEGNIGLMKAVRRFNPEVGVRLVSFAVHWIKAEIHEYVLRNWRIVKVATTKAQRKLFFNLRKAKTRLGWFNQDEVELVARELGVTTKDVREMESRMAAQDMTFDPTPEEDSHDGKAMSPMLYLQDKSSDFADGIEEDNWDTHAADKLTYALEGLDERSQHIIRARWLDDDNKSTLQELADQYGVSAERVRQLEKNAMKKLRAAIEA	not soluble
MRIHILGICGTFMGGLAMLARSLGHEVTGSDANVYPPMSTLLEKQGIDLIQGYDASQLDPQPDLVIIGNAMTRGNPCVEAVLEKNIPFMSGPQWLHDFVLRDRWVLAVAGTHGKTTTAGMATWILEACGYKPGFVIGGVPGNFEVSARLGESPFFVIEADEYDCAFFDKRSKFVHYCPRTLILNNLEFDHADIFDDLKAIQKQFHHLVRIVPGQGRIIWPENDINLKQTMALGCWSEQELVGEQGHWQAKKLTTDASEWEVWLDGEKVGDVKWGLVGEHNMHNGLMAIAAARHVGVAPAEAASALGSFINARRRLELRGEANGVTVYDDFAHHPTAILATLAALRGKVGGTARIIAVLEPRSNTMKMGLCKDDLAPSLGRADEVFLLQPPHIPWQVAEVAEACVQPAHWSGDVDTLAEMVVKTAQPGDHILVMSNGGFGGIHQKLLDGLAKKAQNVTAY	not soluble
MSLVNQLSLFIDVVQQGSFTKAAALHDMDNSALSKQIKKLEAELGVQLLNRSTRTFSLTPAGEEILEQAYQLVGSLDNVKSIADSYQAVPKGRIRITAPLHIGQGYLQPVISQFMTTYPDVEVVLMMDDKRSDIISEHFDVAFRLGRLDDSSLIAKKVADIRGVILASHSLIERFGEPSTPEELVNLPSVIYSNGTLTVDTVRLGESPDSSQFKSYKMKGNYKVNDVRTLLSAVQDGLGYAVVASSNLERSIESMGLTTLLTDYPLCNQGLAIYALYPHRKQTALVREFISAVQKHIGHPPLWEQHIPNFASLYPVKKGQ	not soluble
MGSDKIHHHHHHMIDLQEILANMNPNQKINYDRVMQQMAKVWEKESVRPSILMHVCCAPCSTYTLEYLTQFADITVYFANSNIHPKDEYHRRAYVTQQFVSEFNAKTGNTVQFLEADYVPNEYVRQVRGLEEEPEGGDRCRVCFDYRLDKTAQKAVELGFDYFASALTISPHKNSQTINDVGIDVQKVYTTKYLPSDFKKNNGYRRSVEMCEEYDIYRQCYCGCVYAAKMQGIDLVQVKKDAKAFMADKDLDNDFTHIRFSYRGDEM	not soluble
MAGDPMVRLNVKPTRMELNNLKERLTTAERGHKLLKDKRDELMRRFISLIRENNQLRKEVESYLIDNLKSFAVAKSLKNSQMVEELFSIPSKEIELFVEKENIMSVTVPRMHMNITSQNENSEYSYLSSNSEMDDVFATMNSLIYKLLRLAEVEKTCQLMADEIEKTRRRVNGLEYSIIPNLSETIHYIELKLEEAERANLVRIMKVKLEHHHHHH	not soluble
PLKEQKVINTANITTNSKLDLAEYENGLMNIAKEQFDTENHVLQLNQYIPEKLVDELVAKVKAPVLTNIIEQDYFGKQNSNELSLSGVVIGLAMSSSVSNEEALSKGTEVAGQLIEAIHKNGKYNKSPITFAIFKQESTSSLKNGTYIASATVQKNDTNLGNWNAIEEKAYSYPSDEFTQAHGEDNEKINKFAEAMKGFSPGDFIPVNAKVSYKKNQMDTLNMDIVIKYNGKTELMALTQLAAQSMLDQLPKDAKVQLQIKSENKIEAIVIKEKNSDKPFVSFL	soluble
MSLEDYCTPGAFELERLFWKGSPQYTHVNEVWPKLYIGDEATALDRYRLQKAGFTHVLNAAHGRWNVDTGPDYYRDMDIQYHGVEADDLPTFDLSVFFYPAAAFIDRALSDDHSRKRDVRVRNLCRKAGPLGLLVAEGKGKILVHCVMGRSRSATLVLAYLMIHKDMTLVDAIQQVAKNRCVLPNRGFLKQLRELDKQLVQQRRRSEGHHHHHH	soluble
MVQEQMKLTGTLEGHTGWVTQIATYTRNDKTTVLSSSRDKTILVWDVDSVAPVDEGPIGRPVRSLTGHNHFVSDVVISSDGQFALSGSWDKTLRLWDLNQGVSTRQFISHTKDVLSVAFSADNRQIVSGSRDKSIKLWNTLAQCKYTITDDCHTDWVSTVRFSPSNRDPVIVSAGWDKVVKVWNLGNCRLKTNHIGHTGYVNTVTVSPDGSLCASGGKDGQAMLWDLNEGKHLYTLPGNDVINAMSFSPNRYWLCAAVGSSIKIWDLEDKKEIEELKPEIASSGSSRGSSPQCISLAWSQDGQTLFAGYTDNIIRVYQVSIRASN	not soluble
MNEQPAACRIKVEALGAGFAPAAEQWAERLGLALQVDEAEFALQVGEQGLQLQQLGPDAPGPVRVDFVEGGAAHRRLYGGGSGQMIAKAVGVAQGVRPRVLDATAGLGKDGFVLATLGCEMSLIERQPLIGALLEDGLARAAQDAEVGPIVARMHLLKGNSIELMRNWQGEPPQVIYLDPMFPHREKSALVKKEMRLFRPLVGDDNDAPALLAAALALASHRVVVKRPRKAPCIEGPKPSHGLEGKSSRYDIYPKKALKALEHHHHHH	not soluble
MAHHHHHHMNLRSLVPSDKQLTEEQQSHIQDLQDEIDEIWSRRGDYKIDDKAWEHMPLFMETITEEDMQKNADCAALASIAYDEVPPEDIAESRKQHGNRAIQLALNPEQVNKENLARAAAHCYTEGLNAKCKDPILNSQLYANRSLAQYIIQNYGHGLEDAQRAIILNPDYSKAYYRAARCAERVKKYDLAIDLLSKGRCTNPPPEGIALEEFEELERVCREGMKKFQKKEKEDSIRTRVRAAETSSLMRALTSYGIRLSPTPEVSSEQMGVYGQHQPYFDAVGLLHVPILFMYDEYQQTDFMQDVTCDVSTAELLDEIMPFPWDDRGRYRHMNEVVVFFKIDDGVKMAEYYEVDLSWPLMEVFRSESYKMPMLLPVLHVVCRSSELLQHWKPQKPR	not soluble
TSNFFCGEPIDYRGITAHRLVGAEPRPPVSGTRYAKVPGVPDEYKTGYRPANLGRSDPDSDKSLMNIAVKNLQVYQQEPKLDKVDEFIERAAADVLGYLRFLTKGERQANLNFKAAFNTLDLSTSCGPFVPGKKIDHVKDGVMDQVLAKHLYKCWSVANSGKALHHIYACGLKDELRPLDKVKEGKKRLLWGCDVGVAVCAAAVFHNICYKLKMVARFGPIAVGVDMTSRDVDVIINNLTSKASDFLCLDYSKWDSTMSPCVVRLAIDILADCCEQTELTKSVVLTLKSHPMTILDAMIVQTKRGLPSGMPFTSVINSICHWLLWSAAVYKSCAEIGLHCSNLYEDAPFYTYGDDGVYAMTPMMVSLLPAIIENLRDYGLSPTAADKTEFIDVCPLNKISFLKRTFELTDIGWVSKLDKSSILRQLEWSKTTSRHMVIEETYDLAKEERGVQLEELQVAAAAHGQEFFNFVCRELERQQAYTQFSVYSYDAARKILADRKRVVSVVPDDEFVNVME	soluble
MRHCGWLLGLLSLFSLATHASDWQEIKNEAKGQTVWFNAWGGDTAINRYLDWVSGEMKTHYAINLKIVRLADAADAVKRIQTEVAAGRKTGGSVDLLWVNGENFRTLKEANLLQTGWAETLPNWRYVDTQLPVREDFSVPTEGAESPWGGAQLTFIARRDVTLQPPQTPQALLEFAKANPGTVTYPRPPDFTGTAFLEQLLIMLTPDPTALKEAPDDATFARVTAPLWQYLDALHPYLWREGKDFPPSPARMDALLKANTLRLSLTFNPAHAQQKIASGDLPASSYSFGFREGMIGNVHFVTIPANANASAAAKVVANFLLSPDAQLRKADPAVWGDPSVLDPQKLPDGQRESLQSRMPQDLPPVLAEPHAGWVNALEQEWLHRYSTH	not soluble
MLSSTAIAKWQKINDVDYTWGPFKIYNISLFTETGEYKPQERPIMLTLRYNKPVDGRDFAISVAKSWANLGIALSEQNVVIERLRKILPDLKSGDALSYIALSDHGYFVLNDQVIEQEFNHEFNDAMLAIWLDPKVELSHKLITKKIEGAAQAVHYSAEYREKVTSSSEDLVSQEQRQQNLPNGTPSEATSLTEQEEREDDEKAPAISDAENDLRHSIDESAPQIVEPEQEIIPNVDPMPDYQLPVS	not soluble
HEHNISVTGGTDKIQYYLSANYLGQDGELRIGDEYSNRYTASAKINAQLSKIVSVGFNTRFIRSDYVQPTHLNESFFAEIGRQCWPTKPLYDPNGILYDDHVLQMQNGGEKQERNTWLYQQLNITVEPIKGWRLIGDLSYRYNTQYSHWDYLTVHQTGVDGKTKGNTWNNDSQVHEGTYASDYFNVNLYTDYAKTFAKSHNMKVLFGFQAEQNNYKDIAAEKLGVIYPGKPTINTSTGMDSNNQKVAPNVAGGHNRWATAGFFGRLNYDYLEKYLLEVNLRYDGSSRFRSDSRWGFFPSASVGWNIAREKFFLPVSKVVNTFKVRASYGSLGNQNTSSLYPTYSTIGTGTGSWIIDGTLANIAWAPSLVSYNLSWEKIRTWNAGVDFGLFNNRLTGSFDYYIRKTDDMVGPSEKLPVVLGTAVPSSNNTNLKTFGWELELMWKDRLNNGLNYSARFTLADSRTKITRYSNPSGLIDGFYAGKYVGEIWGYETIGIAQSDQEMAEHIGRLINGGQSNLGQDWKAGDIMYKDLNEDGKIDAGSRTLQDHGDLKRIGNSTPRYNVGLELAADWKGFDIRMFWQGTLKRDYFQGSYYFWGANGRQGPWFSTALKGHDDYFRNDEASPLGTNLNSYYPRPLFNTDKNQQSQTKYLQDASYLRLKNLQIGYSLPHNIVQKMGMQHLRIFASGENLFTITSLIDFFDPESIEGGSWGHGNVYPLSRTFSFGLNVTF	not soluble
MGSDKIHHHHHHMAKERVDVLLVEQGLFDTREKAKRAVMAGEILGDNEERLDKPGVKIDPSVKLHLKGKPMPYVSRGGLKLEKALKVFGLDVKGLTVLDIGSSTGGFTDVMLQNGAKLSYALDVGTNQLVWKLREDPRVVVMENTNFRYSKLEDFTEGQPEFASIDVSFISLKLILPALKNIIKTHGSVVSLIKPQFEAGRENVGKHGIVRDRKVHEEVLKNVLAMANAEGFNVKGLDFSPIKGGEGNIEFLAWLERSDTDQGVIEENVDTQKVIDSAYSNLNS	not soluble
MNRFIIADATKCIGCRTCEVACAVSHHENQDCAALSPDEFISRIRVIKDHCWTTAVACHQCEDAPCANVCPVDAISREHGHIFVEQTRCIGCKSCMLACPFGAMEVVSSRKKARAIKCDLCWHRETGPACVEACPTKALQCMDVEKVQRHRLRQQPV	not soluble
MAHIVQTHKLTLHDVAIDQALVYSSDSNCAELKRTFQVELAHGYNEVKVQNLPFDLVQDSIRVSGAGEAVIHDVSVKNQEGAEFVIPERVLAIKAIFEEKERAKDKVADSRVAVQKRIEGLDNLITEVAKHGKDGAFHFDGRTIESLNALHGFHQDTTVDLRAQIRTLDQDLRKAEEEYARASQDYDNTGYRWRNSAQYASIIVESEAGGAAQLTITYQVNNVSWTPFYDIRVTAGVEAEMHVTYFGKVRQYSGEDWKTVPLVLSTARPAHGVKQLPKLGALEASIVVPEPECNRGGRGGYGGGYAQDSVVMACAAPMMEMGRSRKSMKMSYAAVKSSNIASEFSIGRPATIDDRTDEYKVNIGQFTLDTKLSNVTVPSRNATAFLVANSVNTSDYPLVAGQASIFLDGAFVNKTEFEDAVVSQKFEVSLGVDPNIRIEYKPVRNYQEQSGTVEKINSQVTEKTTAVTNLRPNSVLLTIREQLPRSTDSRIKVHLNTPEAVEVDEASVEPTVGAAITPEKILDYTVQLAPGQSSTFVVKYTTEHPQAEQIRYEEKF	not soluble
MIKNNIKHTWYFGHPQQLVWDYLTKPELLSQWLMESDFQPVAGHTFMFNTKPKVKVGFDGLIYCQVLKVQPDHELEHHHHHH	soluble
